# Changes are numbered by the printed parent chain.
# T1: PUS1 wild type (His-tagged) (Saccharomyces cerevisiae, UniProt Q12211 1-544)
# T1 sequence: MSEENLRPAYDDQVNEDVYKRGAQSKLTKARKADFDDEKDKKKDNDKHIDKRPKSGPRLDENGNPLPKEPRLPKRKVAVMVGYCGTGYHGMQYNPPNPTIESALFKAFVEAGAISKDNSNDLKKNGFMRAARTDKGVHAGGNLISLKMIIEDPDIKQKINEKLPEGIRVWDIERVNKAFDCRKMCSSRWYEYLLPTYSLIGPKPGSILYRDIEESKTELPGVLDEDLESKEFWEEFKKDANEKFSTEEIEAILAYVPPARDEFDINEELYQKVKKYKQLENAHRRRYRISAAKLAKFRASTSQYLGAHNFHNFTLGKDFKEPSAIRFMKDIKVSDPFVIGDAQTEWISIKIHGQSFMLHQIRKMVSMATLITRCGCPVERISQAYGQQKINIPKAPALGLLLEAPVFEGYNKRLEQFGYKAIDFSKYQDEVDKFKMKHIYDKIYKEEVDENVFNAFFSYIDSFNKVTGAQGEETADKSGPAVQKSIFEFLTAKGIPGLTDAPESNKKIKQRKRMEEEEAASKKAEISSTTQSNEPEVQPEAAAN
# T2: PUS1 D134A (His-tagged) (Saccharomyces cerevisiae, UniProt Q12211 1-544, D134A)
# T2 sequence: T1 sequence with D134A
# T3: PUS1 D134A (tagless, crystal) (Saccharomyces cerevisiae, UniProt Q12211 1-544, D134A)
# T3 sequence: T1 sequence with D134A
# T4: PUS1 wild type (tagless, crystal) (Saccharomyces cerevisiae, UniProt Q12211 1-544)
# T4 sequence: T1 sequence
# B1: R263 duplex (crystal) (dsRNA)
# RNA 1: AAAUCGGGAUUCCGGAUA
# RNA 2: AAAUCGGGAUUCCGGAUA
# B2: R340 duplex (crystal) (dsRNA)
# RNA 1: UAAUCGGGAUUCCGGAUA
# RNA 2: UAAUCGGGAUUCCGGAUA
# modifications: 5-fluorouracil at position 1 (written as U)
# Key:
# [1] = target: T1, PUS1 wild type (His-tagged); test: EMSA; 100 nM RNA, increasing protein; EMSA: 100 nM R263 with 100 nM-1 uM PUS1 in 100 ul under PUS1 activity assay conditions (buffer not in the material), 90 min, SYBR Gold stain; crystals: 7R9G 0.05 M ammonium sulfate, 0.05 M Bis-Tris pH 6.0, 26% pentaerythritol ethoxylate, 4 C; 7R9F 0.2 M K/Na tartrate, 18% PEG 3350, 25 C; details: protein: recombinant; tags: N-terminal 6xHis; predicted short stem-loop; strand state in EMSA not determined
# PUS1 D134A (His-tagged) = target: T2, PUS1 D134A (His-tagged); test: as above; details: protein: recombinant; tags: N-terminal 6xHis; predicted short stem-loop; strand state in EMSA not determined
# [2] = target: T3, PUS1 D134A (tagless, crystal); test: X-ray crystallography (2.4 A); sulfate ion near RNA 5' end; EMSA: 100 nM R263 with 100 nM-1 uM PUS1 in 100 ul under PUS1 activity assay conditions (buffer not in the material), 90 min, SYBR Gold stain; crystals: 7R9G 0.05 M ammonium sulfate, 0.05 M Bis-Tris pH 6.0, 26% pentaerythritol ethoxylate, 4 C; 7R9F 0.2 M K/Na tartrate, 18% PEG 3350, 25 C; details: protein: recombinant; tags: none; chain copies: 2; self-duplex of 2 copies; positions 2-10 paired with non-Watson-Crick pairs (two central G:G reverse Hoogsteen); 3' ends disordered
# [3] = target: T4, PUS1 wild type (tagless, crystal); test: X-ray crystallography (2.9 A); EMSA: 100 nM R263 with 100 nM-1 uM PUS1 in 100 ul under PUS1 activity assay conditions (buffer not in the material), 90 min, SYBR Gold stain; crystals: 7R9G 0.05 M ammonium sulfate, 0.05 M Bis-Tris pH 6.0, 26% pentaerythritol ethoxylate, 4 C; 7R9F 0.2 M K/Na tartrate, 18% PEG 3350, 25 C; details: protein: recombinant; tags: none; chain copies: 2; self-duplex of 2 copies, same duplex as R263
binder,measurement,setting,value
AAAUCGGGAUUCCGGAUA (ssRNA) [R263 (EMSA)],binding result,[1],binds
same,binding result,PUS1 D134A (His-tagged),binds
B1,binding result,[2],binds
B2,binding result,[3],binds

# Source: paper PMC10631681, “The structural basis of mRNA recognition and binding by yeast pseudouridine synthase PUS1”
